From patent US20080219970A1 (published 2008) come the findings set out here.

The target in experiment [1] is T1, factor IX (UniProt P00740 47-461).
T1 construct: also called fIX
Briefly: SPR (BIAcore 3000), Ir-CPI immobilized on CM5 chip, factor injected as analyte. On the procedure: (§1) The interaction between Ir-CPI and coagulation or fibrinolytic factors was monitored using a BIAcore 3000 instrument (BIAcore AB, Sweden). Ir-CPI (15 μM) was immobilized on the surface of a CM5 sensor chip in 10 mM acetate buffer, pH 5.0, by the amine coupling procedure according to the manufacturer's instructions. 1500 resonance units (RU) of immobilized Ir-CPI were used for the assay. To subtract the non-specific component from the apparent binding response, a blank flow cell was prepared using the same immobilizing procedure without Ir-CPI. Binding analyses were carried out using HBS buffer (HEPES10 mM, NaCl 150 mM, EDTA 3 mM; pH 7.4 with 0.005% surfactant P20) as running buffer at 25° C. 100 μl of each analyte (100 nM) was injected on the sensor chip at a flow rate of 70 μl/min. Association was monitored during an 84 s injection of analyte. Dissociation was monitored for 3 min after return to the running buffer.
(§2) The ability of Ir-CPI to bind a (co)factor of coagulation or fibrinolysis was evaluated by surface plasmon resonance. […] Moreover, the kinetics of interaction between Ir-CPI and the four target factors (XIIa, XIa, plasmin and kallikrein) were measured after a new immobilization of Ir-CPI. In experiments to determine the binding kinetics, the quantity of immobilized Ir-CPI was deliberately kept at a low level (approximately 200 RU) in order to avoid problems where the reaction rate is limited by mass-transport. […] Interaction kinetics were determined for each analyte, at 6 different concentrations (from 5 nM to 300 nM). The kinetic data obtained were individually processed with BIA evaluation software in order to determine the kinetics constants.
(SPR reads the build-up and loss of mass on a sensor chip optically.)

Experiment [2] deals with T2, factor IXa (UniProt P00740 47-191; P00740 227-461).
T2 construct: read as fIXa; also called FIXa
The experiment is described as above. On the procedure:
as §1, §2

The target of experiment [3] is T3, factor X (UniProt P00742 41-488).
T3 construct: also called fX
The experiment is described as above. On the procedure:
as §1, §2

Experiment [4] addresses thrombin (UniProt P00734 328-622). Described as above. As to the method:
as §1, §2

Experiment [5] concerns the target T4, factor VIIa (UniProt P08709 61-466).
T4 construct: also called fVIIa; FVIIa
T4 sequence (looked up): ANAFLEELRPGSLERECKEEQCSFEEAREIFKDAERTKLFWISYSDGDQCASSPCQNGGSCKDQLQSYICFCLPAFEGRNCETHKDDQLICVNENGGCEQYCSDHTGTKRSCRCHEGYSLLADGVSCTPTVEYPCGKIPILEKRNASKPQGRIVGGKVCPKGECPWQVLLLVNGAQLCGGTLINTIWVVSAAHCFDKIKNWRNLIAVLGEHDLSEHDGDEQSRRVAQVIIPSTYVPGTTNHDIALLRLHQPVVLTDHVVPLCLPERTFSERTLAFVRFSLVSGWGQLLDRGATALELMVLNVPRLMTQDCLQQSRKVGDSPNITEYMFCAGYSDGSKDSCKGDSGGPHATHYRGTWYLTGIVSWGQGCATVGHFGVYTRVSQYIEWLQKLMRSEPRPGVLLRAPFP
Described as above. As to the method: as §1, §2

The target of experiment [6] is t-PA (UniProt P00750 36-562). The experiment is described as above. On the procedure:
as §1, §2

Experiment [7] addresses plasminogen (UniProt P00747 20-810, limits assumed). The experiment is described as above. On the procedure: as §1, §2
Experiment [8] concerns the target T5, high molecular weight kininogen (UniProt P01042 19-644).
T5 construct: also called HMWK
T5 sequence (looked up): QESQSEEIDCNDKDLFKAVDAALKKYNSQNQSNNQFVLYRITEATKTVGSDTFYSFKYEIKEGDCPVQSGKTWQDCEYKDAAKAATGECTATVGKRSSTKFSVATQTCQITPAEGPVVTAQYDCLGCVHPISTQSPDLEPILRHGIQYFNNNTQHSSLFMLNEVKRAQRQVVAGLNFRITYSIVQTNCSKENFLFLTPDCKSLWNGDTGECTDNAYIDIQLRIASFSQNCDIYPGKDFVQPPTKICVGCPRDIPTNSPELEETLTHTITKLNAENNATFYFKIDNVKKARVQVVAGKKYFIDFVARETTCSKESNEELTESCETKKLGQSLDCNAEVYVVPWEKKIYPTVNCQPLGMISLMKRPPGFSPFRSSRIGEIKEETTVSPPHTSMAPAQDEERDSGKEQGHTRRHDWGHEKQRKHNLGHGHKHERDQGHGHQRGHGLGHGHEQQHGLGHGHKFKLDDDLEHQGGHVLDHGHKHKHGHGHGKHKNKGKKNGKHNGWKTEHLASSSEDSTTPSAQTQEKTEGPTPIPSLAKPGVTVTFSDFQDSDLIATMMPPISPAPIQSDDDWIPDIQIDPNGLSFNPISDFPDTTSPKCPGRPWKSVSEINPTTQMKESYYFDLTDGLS
The experiment is described as above. As to the method: as §1, §2

Experiment [9] addresses T6, kallikrein (UniProt P03952 20-638).
T6 construct: also called plasma kallikrein
Briefly: SPR kinetics (BIAcore 3000), Ir-CPI immobilized at about 200 RU, analyte at 6 concentrations from 5 nM to 300 nM. On the procedure:
Interaction kinetics were determined, for each analyte, with 6 different concentrations (from 5 nM to 300 nM). Binding data were analyzed using BIA evaluation software to determine the kinetic constants.
as §2, with “constants. […] FIG. 9 represents sensorgrams for interactions between coagulation factors and immobilized Ir-CPI measured by surface plasmon resonance. Ir-CPI was immobilized onto the surface of a sensor chip CM5 at level of 1500 resonance units (RUs). Contact factors (100 nM final concentration) were injected at a flow rate of 70 μl/min in HBS buffer, and association was monitored. After return to buffer flow, dissociation was monitored during 84 s. […]” for “constants.”

t-PA, sequence (P00750 36-562 limits assumed): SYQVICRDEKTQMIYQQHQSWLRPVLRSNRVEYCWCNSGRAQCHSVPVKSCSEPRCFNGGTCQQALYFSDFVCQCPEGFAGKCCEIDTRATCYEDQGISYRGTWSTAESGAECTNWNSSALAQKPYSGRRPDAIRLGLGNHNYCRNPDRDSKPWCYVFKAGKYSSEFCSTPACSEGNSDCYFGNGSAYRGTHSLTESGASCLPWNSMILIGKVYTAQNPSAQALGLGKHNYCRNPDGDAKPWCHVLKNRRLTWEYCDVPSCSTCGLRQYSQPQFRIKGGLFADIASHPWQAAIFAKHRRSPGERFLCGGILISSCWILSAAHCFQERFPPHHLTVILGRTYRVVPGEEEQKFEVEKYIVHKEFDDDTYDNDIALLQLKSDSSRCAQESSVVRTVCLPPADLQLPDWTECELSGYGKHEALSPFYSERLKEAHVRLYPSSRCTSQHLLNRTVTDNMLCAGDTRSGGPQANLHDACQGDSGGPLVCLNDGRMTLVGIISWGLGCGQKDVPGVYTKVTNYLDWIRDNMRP
plasminogen, sequence (P00747 20-810 limits assumed): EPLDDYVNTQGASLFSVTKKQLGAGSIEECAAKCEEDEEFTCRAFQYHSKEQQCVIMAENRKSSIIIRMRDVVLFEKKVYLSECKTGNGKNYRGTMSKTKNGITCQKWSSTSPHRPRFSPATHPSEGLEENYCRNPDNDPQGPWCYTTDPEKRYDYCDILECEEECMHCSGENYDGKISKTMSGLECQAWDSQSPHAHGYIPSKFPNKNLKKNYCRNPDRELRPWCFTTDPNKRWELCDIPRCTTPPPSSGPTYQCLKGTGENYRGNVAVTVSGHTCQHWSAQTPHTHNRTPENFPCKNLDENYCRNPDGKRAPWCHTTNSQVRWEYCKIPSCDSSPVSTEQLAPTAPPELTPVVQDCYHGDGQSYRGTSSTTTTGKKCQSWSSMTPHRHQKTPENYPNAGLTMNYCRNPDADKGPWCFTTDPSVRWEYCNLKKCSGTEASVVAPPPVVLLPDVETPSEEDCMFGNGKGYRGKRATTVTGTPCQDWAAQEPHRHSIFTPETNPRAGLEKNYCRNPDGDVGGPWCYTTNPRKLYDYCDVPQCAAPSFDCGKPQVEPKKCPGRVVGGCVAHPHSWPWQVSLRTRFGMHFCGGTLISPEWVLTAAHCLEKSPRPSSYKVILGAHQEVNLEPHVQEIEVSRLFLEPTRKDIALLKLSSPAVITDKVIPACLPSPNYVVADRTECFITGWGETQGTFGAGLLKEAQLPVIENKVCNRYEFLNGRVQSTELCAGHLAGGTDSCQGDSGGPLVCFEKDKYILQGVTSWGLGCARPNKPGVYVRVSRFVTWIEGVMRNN
T6 sequence (P03952 20-638 limits assumed): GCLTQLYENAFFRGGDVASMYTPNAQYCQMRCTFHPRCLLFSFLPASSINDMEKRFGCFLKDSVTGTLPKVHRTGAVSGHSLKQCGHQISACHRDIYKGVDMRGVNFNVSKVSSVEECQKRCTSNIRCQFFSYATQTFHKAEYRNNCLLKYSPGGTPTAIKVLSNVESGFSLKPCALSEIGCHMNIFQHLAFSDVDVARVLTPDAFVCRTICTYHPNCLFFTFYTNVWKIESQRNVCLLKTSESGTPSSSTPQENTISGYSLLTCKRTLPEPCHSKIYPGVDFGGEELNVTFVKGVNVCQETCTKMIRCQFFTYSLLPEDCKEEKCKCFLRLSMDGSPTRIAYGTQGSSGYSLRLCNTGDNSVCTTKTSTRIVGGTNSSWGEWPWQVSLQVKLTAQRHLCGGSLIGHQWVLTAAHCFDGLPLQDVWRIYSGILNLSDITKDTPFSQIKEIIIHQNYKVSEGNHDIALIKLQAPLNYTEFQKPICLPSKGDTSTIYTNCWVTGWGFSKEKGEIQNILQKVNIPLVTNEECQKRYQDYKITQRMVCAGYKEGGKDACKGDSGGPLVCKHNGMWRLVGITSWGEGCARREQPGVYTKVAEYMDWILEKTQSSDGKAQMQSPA

B1: Ir-CPI (Ixodes ricinus Contact Phase Inhibitor), recombinant, without its peptide signal (other)
chain: ANHKGRGRPAKCKLPPDDGPCRARIPSYYFDRKTKTCKEFMYGGCEGNENNFENITTCQEECRAKKV
notes: Immobilized on a CM5 chip by amine coupling for SPR; also called recombinant Ir-CPI
As usually defined, the Kd is the free concentration of one partner at which half of the binding sites on the other are occupied at equilibrium, for simple one-to-one binding. Low readings indicate a tighter complex, high ones a looser complex. Turning to B1, the binding result in experiment [1], in [2], in experiment [3], in experiment [4], in [5] and in experiment [6] was “no binding (tested: 100 nM)” each time. The binding result in experiment [7] and in experiment [8] was “no binding (tested: 100 nM)” in each case. In addition, in [9], the Kd turned out to be 200 nM.
